The text below walks through data of article PMC11405125 (Briefings in Bioinformatics, 2024).

B1: HuJ3 E44R (VHH)
VHH: EVQLVESGGGLVQPGGSLRLSCAASGSIFNQYAMAWFRQAPGKRREFVAGMGAVPHYGEFVKGRFTISRDNSKNTVYLQMNSLRAEDTAVYYCARSKSTYISYNSNGYDYWGQGTLVTVS
B2: HuJ3 V54E (VHH)
VHH: EVQLVESGGGLVQPGGSLRLSCAASGSIFNQYAMAWFRQAPGKEREFVAGMGAEPHYGEFVKGRFTISRDNSKNTVYLQMNSLRAEDTAVYYCARSKSTYISYNSNGYDYWGQGTLVTVS
B3: HuJ3 S102R (VHH)
VHH: EVQLVESGGGLVQPGGSLRLSCAASGSIFNQYAMAWFRQAPGKEREFVAGMGAVPHYGEFVKGRFTISRDNSKNTVYLQMNSLRAEDTAVYYCARSKSTYIRYNSNGYDYWGQGTLVTVS

The assay has as its target HIV-1 Bal gp140 (Human immunodeficiency virus 1, isolate …, UniProt Q2MKA8, strain). Kind of assay: ELISA.
As to B1, the EC50 came to 1.7 nM. Then B2, with 2.31 nM. B3 registered an EC50 of 10.4 nM.

In general, EC50 refers to the concentration at which the effect is half-maximal. A lower EC50 goes with a more potent agent.
